Reference: patent US20260209386A1 (MYTHIC THERAPEUTICS, published 2026)
Changes are numbered by the printed parent chain.

T1: Human PTK7 (human, UniProt Q13308 31-1070)
T1 sequence: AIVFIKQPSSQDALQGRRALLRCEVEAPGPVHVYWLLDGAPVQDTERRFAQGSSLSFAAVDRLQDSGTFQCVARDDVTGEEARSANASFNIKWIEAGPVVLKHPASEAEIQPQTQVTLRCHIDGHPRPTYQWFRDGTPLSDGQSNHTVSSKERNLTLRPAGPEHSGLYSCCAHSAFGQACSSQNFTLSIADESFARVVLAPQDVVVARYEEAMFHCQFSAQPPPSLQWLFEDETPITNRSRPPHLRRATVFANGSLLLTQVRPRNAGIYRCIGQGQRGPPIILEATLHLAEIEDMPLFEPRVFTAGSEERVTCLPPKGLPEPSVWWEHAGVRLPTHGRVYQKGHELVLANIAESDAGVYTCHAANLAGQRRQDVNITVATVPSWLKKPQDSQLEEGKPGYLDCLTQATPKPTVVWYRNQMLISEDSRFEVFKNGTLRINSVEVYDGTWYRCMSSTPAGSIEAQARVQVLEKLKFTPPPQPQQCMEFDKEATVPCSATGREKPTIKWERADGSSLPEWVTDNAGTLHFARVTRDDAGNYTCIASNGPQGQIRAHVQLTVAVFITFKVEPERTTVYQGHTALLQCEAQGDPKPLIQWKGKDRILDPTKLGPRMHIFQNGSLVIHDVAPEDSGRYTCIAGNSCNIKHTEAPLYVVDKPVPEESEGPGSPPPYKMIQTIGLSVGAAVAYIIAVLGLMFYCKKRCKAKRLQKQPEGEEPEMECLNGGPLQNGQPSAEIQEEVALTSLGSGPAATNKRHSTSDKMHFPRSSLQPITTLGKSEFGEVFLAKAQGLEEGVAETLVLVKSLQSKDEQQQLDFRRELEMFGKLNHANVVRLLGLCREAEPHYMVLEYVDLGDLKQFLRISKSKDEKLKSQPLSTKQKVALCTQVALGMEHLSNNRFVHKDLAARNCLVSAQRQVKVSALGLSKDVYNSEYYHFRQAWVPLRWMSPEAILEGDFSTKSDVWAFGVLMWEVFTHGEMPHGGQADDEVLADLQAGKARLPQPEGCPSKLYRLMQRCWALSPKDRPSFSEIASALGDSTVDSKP

T2: Human PTK7/CCK4 Protein, His Tag, Acro Biosystems PT7-H52H3 (human, UniProt Q13308 31-704)
T2 construct: bought protein; also called Human PTK7 Protein, His Tag, Acro Biosystems; not shown: His tag
T2 sequence: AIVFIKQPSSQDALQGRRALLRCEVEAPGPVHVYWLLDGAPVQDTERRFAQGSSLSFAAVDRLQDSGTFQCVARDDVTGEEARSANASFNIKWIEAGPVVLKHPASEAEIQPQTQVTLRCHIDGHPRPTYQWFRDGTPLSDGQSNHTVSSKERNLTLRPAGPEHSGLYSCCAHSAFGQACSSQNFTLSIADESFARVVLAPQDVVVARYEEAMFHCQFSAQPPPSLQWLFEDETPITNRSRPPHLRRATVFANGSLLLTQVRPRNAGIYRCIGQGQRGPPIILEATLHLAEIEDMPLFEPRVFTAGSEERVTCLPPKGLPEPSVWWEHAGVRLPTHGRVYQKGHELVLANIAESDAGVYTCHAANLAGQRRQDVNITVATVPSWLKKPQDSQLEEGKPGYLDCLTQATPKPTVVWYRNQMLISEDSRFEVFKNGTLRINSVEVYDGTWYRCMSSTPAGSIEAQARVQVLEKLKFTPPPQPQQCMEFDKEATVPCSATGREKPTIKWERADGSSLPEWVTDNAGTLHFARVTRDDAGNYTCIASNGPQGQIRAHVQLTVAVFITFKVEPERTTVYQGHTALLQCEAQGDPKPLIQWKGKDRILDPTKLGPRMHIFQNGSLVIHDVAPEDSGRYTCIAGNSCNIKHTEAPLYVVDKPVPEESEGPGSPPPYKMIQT

B1: MYT11033 (antibody, V domains shown)
VH: EVQLVESGGGLVQPGGSLRLSCTASGLSLSSHWMSWVRQAPGKGLEWVGVISAGGNTYYANWAKGRFTISRDTSKNTVYLQMNSLRAEDTAVYFCARGDDGYTNAAYVSNLWGQGTLVTVSS
VL: EIVMTQSPSTLSASVGDRVIITCQASQSISSWLSWYQQKPGKAPKLLIYKASTLASGVPSRFSGSGSGAEFTLTISSLQPDDFATYYCQSYFDSTTIAFGQGTKLTVL
B2: MYT11056 (antibody, V domains shown)
VH: B1 VH with H32Y, D99H
VL: B1 VL
B3: MYT11063 (antibody, V domains shown)
VH: B1 VH with H32Y, A106H
VL: B1 VL
B4: MYT11058 (antibody, V domains shown)
VH: B1 VH with H32Y, G101H
VL: B1 VL
B5: MYT11068 (antibody, V domains shown)
VH: B1 VH with H32Y, L111H
VL: B1 VL
B6: MYT11059 (antibody, V domains shown)
VH: B1 VH with H32Y, Y102H
VL: B1 VL
B7: MYT11053 (antibody, V domains shown)
VH: B1 VH with H32Y, A96H
VL: B1 VL
B8: MYT11356 (antibody, V domains shown)
VH: EVQLVESGGGLVQPGGSLRLSCTASGIDLSNYAVIWVRQAPGKGLEWVGIIYTYDTHYYANWAKGRFTISRDTSKNTVYLQMNSLRAEDTAVYFCARSFSDISDLIKLWGQGTLVTVSS
VL: EIVMTQSPSTLSASVGDRVIITCQASQSLYNNKDLAWYQQKPGKAPKLLIYEASKLASGVPSRFSGSGSGAEFTLTISSLQPDDFATYYCLGEFSCGSGDCLAFGQGTKLTVL
notes: IgG
B9: MYT11357 (antibody, V domains shown)
VH: B8 VH with H57T, Y58H
VL: B8 VL
notes: IgG
B10: MYT11398 (antibody, V domains shown)
VH: B8 VH with H57T
VL: B8 VL with S54H
notes: IgG
B11: MYT11396 (antibody, V domains shown)
VH: B8 VH with H57T
VL: B8 VL with E52H
notes: IgG
B12: MYT11394 (antibody, V domains shown)
VH: B8 VH with H57T
VL: B8 VL with L35H
notes: IgG
B13: MYT11410 (antibody, V domains shown)
VH: B8 VH with H57T
VL: B8 VL with G99H
notes: IgG
B14: MYT11390 (antibody, V domains shown)
VH: B8 VH with H57T
VL: B8 VL with N31H
notes: IgG
B15: MYT11409 (antibody, V domains shown)
VH: B8 VH with H57T
VL: B8 VL with S98H
notes: IgG
B16: MYT11363 (antibody, V domains shown)
VH: B8 VH with H57T, K64H
VL: B8 VL
notes: IgG
B17: MYT11376 (antibody, V domains shown)
VH: B8 VH with H57T, K107H
VL: B8 VL
notes: IgG
B18: MYT11393 (antibody, V domains shown)
VH: B8 VH with H57T
VL: B8 VL with D34H
notes: IgG
B19: MYT11392 (antibody, V domains shown)
VH: B8 VH with H57T
VL: B8 VL with K33H
notes: IgG
B20: MYT11369 (antibody, V domains shown)
VH: B8 VH with H57T, S100H
VL: B8 VL
notes: IgG
B21: MYT10952 (antibody, V domains shown)
VH: EVQLVESGGGLVQPGGSLRLSCTASGHSLSSYAMGWVRQAPGKGLEWVGFINAGGNTYYANWAKGRFTISRDTSKNTVYLQMNSLRAEDTAVYFCARRYSRASGWYDLWGQGTLVTVSS
VL: EIVMTQSPSTLSASVGDRVIITCQASQSISSYLAWYQQKPGKAPKLLIYAASTLASGVPSRFSGSGSGAEFTLTISSLQPDDFATYYCQSYSYSSGIDYGDVFGQGTKLTVL
B22: MYT11005 (antibody, V domains shown)
VH: B21 VH with H27F
VL: B21 VL with S52H
B23: MYT10955 (antibody, V domains shown)
VH: B21 VH with H27F, S30H
VL: B21 VL
B24: MYT11017 (antibody, V domains shown)
VH: B21 VH with H27F
VL: B21 VL with G96H
B25: MYT10989 (antibody, V domains shown)
VH: B21 VH with H27F, L108H
VL: B21 VL
B26: MYT10899 (antibody, V domains shown)
VH: EVQLVESGGGLVQPGGSLRLSCTASGFSLSNYVMNWVRQAPGKGLEWVGIIDSHGSTYYASWAKGRFTISRDTSKNTVYLQMNSLRAEDTAVYFCARGLYLWGQGTLVTVSS
VL: EIVMTQSPSTLSASVGDRVIITCQSSQSVYNNNLLAWYQQKPGKAPKLLIYYTSNLASGVPSRFSGSGSGAEFTLTISSLQPDDFATYYCQGGYNGNIYAFGQGTKLTVL
B27: MYT10917 (antibody, V domains shown)
VH: B26 VH with H54S, F94Y
VL: B26 VL

Columns and labels:
Human PTK7 = target: T1, Human PTK7; test: cell-based or functional assay
[1] = target: T2, Human PTK7/CCK4 Protein, His Tag, Acro …; test: BLI, antibody on anti-human Fc sensor, 50 nM PTK7

Binder	Internalization, FOW @ 25 nM (fold over the wildtype, parental antibody) (Human PTK7)	binding result [1]
B1	1.19 fold over parental antibody	–
B2	1.1 fold over parental antibody	–
B3	2.04 fold over parental antibody	–
B4	1.26 fold over parental antibody	–
B5	1.22 fold over parental antibody	–
B6	1.27 fold over parental antibody	–
B7	1.25 fold over parental antibody	–
B8	–	binds
B9	–	binds
B10	–	binds
B11	–	binds
B12	–	binds
B13	–	binds
B14	–	binds
B15	–	binds
B16	–	binds
B17	–	binds
B18	–	binds
B19	–	binds
B20	–	binds
B21	1.06 fold over parental antibody	–
B22	1.05 fold over parental antibody	–
B23	1.05 fold over parental antibody	–
B24	1.2 fold over parental antibody	–
B25	1.09 fold over parental antibody	–
B26	1.14 fold over parental antibody	–
B27	1.29 fold over parental antibody	–
